In publication PMC10229432:

How the values were obtained:
[1] = molecular target: Epidermal Growth Factor Receptor (EGFR) expressed on the surface of A431 cells (human (endogenous in A431)) (UniProt P00533); test: on-cell binding assay (cell ELISA, chemiluminescence); as a1, but after the 5 min at 37 °C the plate was irradiated with 365-nm light for 10 min (33 mW per cm2) before washing and fixing; Kd from a sigmoidal nonlinear fit
[2] = molecular target: extracellular domain of EGFR (sEGFR) (UniProt P00533); test: cross-linking; photocrosslinking in PBS, 10-μl reaction: 10 pmol sEGFR (or BSA) with 100 pmol 7D12 mutant (0-200 pmol in Fig. 2d), 5 min at 37 °C, 365-nm light for 10 min; PNGase F; denaturing SDS-PAGE, Coomassie; percent from band intensities

- Kd [1]: 103 nM
- percent crosslinked to EGFR [2]: 33%
Substance: 7D12-32pcY-109Bpa (VHH)
